Results reported in US20090202993.

Target: T1, Phi29 DNA polymerase (Bacillus phage phi29) (UniProt P03680)
T1 sequence: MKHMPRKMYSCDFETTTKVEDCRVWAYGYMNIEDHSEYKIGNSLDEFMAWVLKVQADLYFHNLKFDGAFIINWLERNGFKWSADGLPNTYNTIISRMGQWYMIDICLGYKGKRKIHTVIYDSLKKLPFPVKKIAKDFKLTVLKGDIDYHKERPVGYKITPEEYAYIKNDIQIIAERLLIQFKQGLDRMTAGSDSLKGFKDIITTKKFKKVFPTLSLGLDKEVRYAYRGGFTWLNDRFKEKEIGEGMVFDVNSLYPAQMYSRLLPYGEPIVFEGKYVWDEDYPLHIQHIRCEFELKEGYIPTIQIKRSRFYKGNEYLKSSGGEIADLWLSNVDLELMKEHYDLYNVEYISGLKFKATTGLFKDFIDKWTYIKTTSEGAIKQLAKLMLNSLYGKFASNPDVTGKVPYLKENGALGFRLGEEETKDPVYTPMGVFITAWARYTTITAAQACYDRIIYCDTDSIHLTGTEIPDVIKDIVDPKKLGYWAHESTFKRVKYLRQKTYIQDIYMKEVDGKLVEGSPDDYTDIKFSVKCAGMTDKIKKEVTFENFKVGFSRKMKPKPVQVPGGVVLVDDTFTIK
Experiment: cleavage_in_vitro
Conditions: Tango buffer, 37 C, 3 h; Mg2+, Mn2+ or Co2+ required; scale: % increase in acid-soluble product vs no enzyme

[3H]poly(A) RNA
activity: 30
